# T1: BMC08 (uncultured bacterium (metagenome))
# T1 chain: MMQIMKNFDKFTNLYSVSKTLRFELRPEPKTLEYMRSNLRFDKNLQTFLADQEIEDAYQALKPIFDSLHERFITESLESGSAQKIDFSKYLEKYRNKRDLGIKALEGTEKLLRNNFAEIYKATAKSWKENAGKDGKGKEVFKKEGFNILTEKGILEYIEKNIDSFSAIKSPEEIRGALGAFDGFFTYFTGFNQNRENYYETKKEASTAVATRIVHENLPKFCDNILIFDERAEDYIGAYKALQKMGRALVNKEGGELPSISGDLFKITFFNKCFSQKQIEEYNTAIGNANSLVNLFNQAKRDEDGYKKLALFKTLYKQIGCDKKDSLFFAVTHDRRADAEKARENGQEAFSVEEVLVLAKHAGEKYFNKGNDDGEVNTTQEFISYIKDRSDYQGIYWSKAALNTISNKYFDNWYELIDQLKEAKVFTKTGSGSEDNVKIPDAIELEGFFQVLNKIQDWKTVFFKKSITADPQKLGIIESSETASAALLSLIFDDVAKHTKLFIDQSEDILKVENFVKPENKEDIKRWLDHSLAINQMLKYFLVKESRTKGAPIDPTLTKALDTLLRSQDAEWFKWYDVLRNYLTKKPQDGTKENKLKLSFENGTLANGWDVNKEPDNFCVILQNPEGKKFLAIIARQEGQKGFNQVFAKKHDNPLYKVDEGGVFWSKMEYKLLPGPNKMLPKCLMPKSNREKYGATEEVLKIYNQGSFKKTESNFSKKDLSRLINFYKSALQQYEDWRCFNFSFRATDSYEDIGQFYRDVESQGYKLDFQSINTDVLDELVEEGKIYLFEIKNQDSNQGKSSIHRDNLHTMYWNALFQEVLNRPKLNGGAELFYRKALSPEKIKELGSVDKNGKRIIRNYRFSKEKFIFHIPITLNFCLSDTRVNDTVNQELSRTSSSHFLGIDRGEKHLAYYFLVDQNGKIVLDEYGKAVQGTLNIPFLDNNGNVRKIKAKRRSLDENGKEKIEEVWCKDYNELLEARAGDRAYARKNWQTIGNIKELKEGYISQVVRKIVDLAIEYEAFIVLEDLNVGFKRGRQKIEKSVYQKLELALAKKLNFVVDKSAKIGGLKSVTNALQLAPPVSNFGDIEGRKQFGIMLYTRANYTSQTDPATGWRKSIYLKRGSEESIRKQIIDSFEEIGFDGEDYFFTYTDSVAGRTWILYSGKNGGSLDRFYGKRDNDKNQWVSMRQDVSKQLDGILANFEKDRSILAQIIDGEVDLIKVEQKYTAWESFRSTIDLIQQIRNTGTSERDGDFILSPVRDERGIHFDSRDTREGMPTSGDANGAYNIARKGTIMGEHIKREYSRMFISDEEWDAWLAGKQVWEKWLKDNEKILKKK
# B1: malQ gRNA (BMC stem-loop + 24 nt spacer) ; malQ protospacer (ssRNA ; dsDNA)
# RNA: GAUUUCUACUAUUGUAGAUGUGGCGGUACGUUGAUGCAUCGCG
# DNA 1: GTGGCGGTACGTTGATGCATCGCG
# DNA 2: CGCGATGCATCAACGTACCGCCAC
# Target: T1, BMC08
# Assay: cell_activity; PAM not stated; E. coli depletion, 30 C
# Procedure, shortened: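 E. coli carrying arabinose-induced (0.2%) BMC nuclease, grown at 30° C., made electrocompetent and electroporated with 50-100 ng plasmid carrying gRNA against malQ. Transformants plated on selective M9-glucose agar with kanamycin/ampicillin (± nourseothricin), and growth scored after 48 h at 30° C.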
binder,measurement,value
B1,activity,> 99.9 % colony reduction
